Consider 2 molecules from paper doi:10.1101/2020.07.09.195545.

Like-named read-outs stand apart in the source and are kept apart here.

Series [1] addresses T1, rLCRF-SBP (Chlamydomonas reinhardtii, UniProt A0A2K3E5K7 866-1032). Description: EMSA. Background: A gel shift assay detects complexes by their altered migration in electrophoresis.
The target of series [2] is T1, rLCRF-SBP. As to the kind of experiment: EMSA. The source holds these as a separate data set.

B1: mutated GTAC-consensus 30 bp (shuffled core) (dsDNA)
DNA 1: GTCGCCACTGCGAGATCCACTGAGAGATCG
DNA 2: CGATCTCTCAGTGGATCTCGCAGTGGCGAC
As for B1, the binding result in series [1] is “no binding”.

B2: GTAC-consensus 30 bp (dsDNA)
DNA 1: GTCGCCGTACCGAGATCCGTACAGAGATCG
DNA 2: CGATCTCTGTACGGATCTCGGTACGGCGAC
Regarding B2, in series [2], the binding result was “binds”.
